Holding throughout (test): SPR (Biacore), antibody captured, FcgR analyte
For orientation: Surface plasmon resonance follows binding to a sensor surface in real time, without labels.

For test [1], the target named is T1, cynomolgus monkey FcγRIIa2 extracellular domain, C-terminal His-tag (cynomolgus monkey).
T1 construct: also called cyno FcγRIIa2; cynoFcgRIIa2
T1 chain: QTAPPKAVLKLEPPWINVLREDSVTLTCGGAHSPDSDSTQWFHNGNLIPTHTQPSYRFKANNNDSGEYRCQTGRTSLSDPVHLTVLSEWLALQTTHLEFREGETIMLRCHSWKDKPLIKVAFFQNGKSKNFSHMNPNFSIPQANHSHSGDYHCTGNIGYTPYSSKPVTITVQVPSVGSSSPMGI
How it is done: (§1) The kinetic analysis of interactions between these antibodies and FcγR was carried out using BIACORE® T200 or BIACORE® 4000 (GE Healthcare). HBS-EP+ (GE Healthcare) was used as the running buffer, and the measurement temperature was set to 25° C. A chip produced by immobilizing Protein A. Protein A/G or mouse anti-human IgG kappa light chain (BD Biosciences) onto a Series S Sensor Chip CM4 or CM5 (GE Healthcare) by the amine-coupling method was used. […] After the measurement, the antibody captured on the chip was washed off by allowing reaction with 10 mM glycine-HCl, pH1.5 and 25 mM NaOH so that the chip was regenerated and used repeatedly. The sensorgrams obtained as measurement results were analyzed by the 1:1 Langmuir binding model using the BIACORE® Evaluation Software to calculate the binding rate constant ka (L/mol/s) and dissociation rate constant kd (l/s), and the dissociation constant KD (mol/L) was calculated from these values. […] Regarding such interactions, KD values were calculated using the following 1:1 binding model described in BIACORE® T100 Software Handbook BR1006-48 Edition AE.
(§2) The behavior of interacting molecules according to the 1:1 binding model on BIACORE® can be described by Equation 1: Req=C·R max/(KD+C)+RI, wherein, Req is a plot of steady-state binding levels to analyte concentration. C is concentration, RI is bulk refractive index contribution in the sample, and Rmax is analyte binding capacity of the surface. When this equation is rearranged, KD can be expressed as Equation 2: KD=C·Rmax/(Req−RI)−C. KD can be calculated by substituting the values of Rmax, RI, and C into Equation 1 or Equation 2. From the current measurement conditions, RI=0, C=2 μmol/L can be used.

The target in test [2] is T2, human FcγRIIb extracellular domain, C-terminal His-tag (human, UniProt P31994 43-217).
T2 construct: also called human FcgRIIb; FcgRIIb
T2 sequence: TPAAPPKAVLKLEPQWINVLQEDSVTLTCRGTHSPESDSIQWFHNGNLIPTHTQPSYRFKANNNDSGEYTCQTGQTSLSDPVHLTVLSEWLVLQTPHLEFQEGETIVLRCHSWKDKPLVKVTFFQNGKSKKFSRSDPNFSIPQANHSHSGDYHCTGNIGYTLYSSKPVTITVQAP
How it is done:
as §1, §2

Test [3] has as its target T3, human FcγRIIaR extracellular domain, C-terminal His-tag (human, UniProt P12318 34-217).
T3 construct: also called human FcγRIIa (type R); FcgRIIaR
T3 chain: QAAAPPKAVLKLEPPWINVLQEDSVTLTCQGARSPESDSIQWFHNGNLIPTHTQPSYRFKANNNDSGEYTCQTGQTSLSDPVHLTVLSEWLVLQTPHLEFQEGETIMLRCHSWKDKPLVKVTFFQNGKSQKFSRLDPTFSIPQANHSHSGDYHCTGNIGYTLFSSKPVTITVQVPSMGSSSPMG
How it is done: as §1, §2

The target in test [4] is T4, human FcγRIIIaV extracellular domain, C-terminal His-tag (human, UniProt P08637 17-208).
T4 construct: also called human FcgRIIIaV; FcgRIIIaV
As for the experimental part:
as §1, §2

The target in test [5] is T5, cynomolgus monkey FcγRIIIaS extracellular domain, C-terminal His-tag (cynomolgus monkey, UniProt Q8SPW2 21-206 at identity 1.00)).
T5 construct: also called cyno FcγRIIIaS; cynoFcγRIIIaS
T5 chain: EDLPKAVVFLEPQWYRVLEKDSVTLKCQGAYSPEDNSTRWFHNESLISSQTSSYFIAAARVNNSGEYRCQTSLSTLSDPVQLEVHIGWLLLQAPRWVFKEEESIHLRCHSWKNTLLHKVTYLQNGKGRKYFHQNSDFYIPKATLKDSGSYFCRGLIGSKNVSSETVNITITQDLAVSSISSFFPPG
How it is done: as §1, §2

For test [6], the target named is T6, cynomolgus monkey FcγRIIa3 extracellular domain, C-terminal His-tag (cynomolgus monkey).
T6 construct: also called cyno FcγRIIa3; cynoFcgRIIa3
T6 chain: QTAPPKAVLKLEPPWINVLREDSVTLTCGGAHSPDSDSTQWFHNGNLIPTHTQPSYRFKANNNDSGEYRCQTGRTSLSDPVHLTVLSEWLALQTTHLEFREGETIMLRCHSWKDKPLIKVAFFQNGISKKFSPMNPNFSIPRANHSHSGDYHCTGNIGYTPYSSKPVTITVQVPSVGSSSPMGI
As for the experimental part: as §1, §2

Test [7] has as its target T7, human FcγRIIaH extracellular domain, C-terminal His-tag (human, UniProt P12318 34-217).
T7 construct: also called human FcγRIIa (type H); FcgRIIaH
T7 sequence: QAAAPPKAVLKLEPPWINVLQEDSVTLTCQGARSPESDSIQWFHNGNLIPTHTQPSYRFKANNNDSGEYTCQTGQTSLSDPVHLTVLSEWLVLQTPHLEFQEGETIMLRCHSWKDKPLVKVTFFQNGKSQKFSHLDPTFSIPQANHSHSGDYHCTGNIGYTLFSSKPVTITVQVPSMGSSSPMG
As for the experimental part:
as §1, §2

The target in test [8] is T8, cynomolgus monkey FcγRIIb extracellular domain, C-terminal His-tag (cynomolgus monkey).
T8 construct: also called cyno FcγRIIb; cynoFcγRIIb
T8 chain: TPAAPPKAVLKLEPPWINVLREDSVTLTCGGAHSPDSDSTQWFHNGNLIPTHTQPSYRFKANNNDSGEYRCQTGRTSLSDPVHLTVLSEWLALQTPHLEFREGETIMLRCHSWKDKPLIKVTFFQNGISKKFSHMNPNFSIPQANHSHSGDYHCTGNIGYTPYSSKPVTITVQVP
As for the experimental part:
as §1, §2

Test [9] has as its target T9, cynomolgus monkey FcγRIIa1 extracellular domain, C-terminal His-tag (cynomolgus monkey).
T9 construct: also called cyno FcγRIIa1; cynoFcgRIIa1
T9 chain: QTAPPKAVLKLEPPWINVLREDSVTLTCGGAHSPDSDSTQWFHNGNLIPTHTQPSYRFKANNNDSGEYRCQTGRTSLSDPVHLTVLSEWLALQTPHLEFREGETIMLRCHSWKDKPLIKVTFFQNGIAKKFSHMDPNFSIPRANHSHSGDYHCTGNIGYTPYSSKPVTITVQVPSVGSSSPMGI
How it is done:
as §1, §2

The text below walks through data of patent US20200317768A1 (published 2020).

T4 sequence (P08637 17-208 F176V): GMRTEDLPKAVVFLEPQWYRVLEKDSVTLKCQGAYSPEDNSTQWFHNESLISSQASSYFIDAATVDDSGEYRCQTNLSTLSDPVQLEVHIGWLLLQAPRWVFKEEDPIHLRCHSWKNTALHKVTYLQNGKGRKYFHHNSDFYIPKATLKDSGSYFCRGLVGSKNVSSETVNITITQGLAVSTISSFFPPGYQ

B1: M103205H795-MY201/M103202L889-SK1 (antibody, human IgG1, kappa)
heavy: QVTLKESGPVLVKPTETLTLTCTVSGIDLSHDDISWVRQAPGKGLEWVGIISYAGSTYYASWAKGRLTISKDTSKNQVVLTMTNMDPVDTATYYCARGVPAYSHGGDLWGQGTLVTVSSASTKGPSVFPLAPSSKSTSGGTAALGCLVKDYFPEPVTVSWNSGALTSGVHTFPAVLQSSGLYSLSSVVTVPSSSLGTQTYICNVNHKPSNTKVDKKVEPKSCDKTHTCPPCPAPELLNGPSVFLFPPKPKDTLMISRTPEVTCVVVDVSDEDPEVKFNWYVDGVEVHNAKTKPREEQYNSTYRVVSVLTVLHQDWLNGKEYKCKVSNKALPKPIEKTISKAKGQPREPQVYTLPPSREEMTKNQVSLTCLVKGFYPSDIAVEWESNGQPENNYKTTPPVLDSDGSFFLYSKLTVDKSRWQQGNVFSCSVMHEALHNHYTQKSLSLSP
light: DIVMTQSPATLSLSPGERATLSCTSSQSVYHANWLSWFQQKPGQPPKLLIYWASTLAYGVPSRFSGSGSGTDFTLTISSLQPEDAATYYCAGGYGGGRYAFGQGTKVEIKRTVAAPSVFIFPPSDEQLKSGTASVVCLLNNFYPREAKVQWKVDNALQSGNSQESVTEQDSKDSTYSLSSTLTLSKADYEKHKVYACEVTHQGLSSPVTKSFNRGEC
notes: also called MS1032LO06-MY201
With B1, the Kd – broadly, the constant that tells how readily two partners part at equilibrium – stood at 1400 nM in test [1]; 1100 nM in test [2]; 1900 nM in test [3]; 24000 nM in [4]; 5700 nM in test [5]; 39000 nM in [6]. The Kd came out at 910 nM in test [7], 430 nM in [8] and 14000 nM in test [9].

B2: M103205H795-MY202/M103202L889-SK1 (antibody, human IgG1, kappa)
heavy: QVTLKESGPVLVKPTETLTLTCTVSGIDLSHDDISWVRQAPGKGLEWVGIISYAGSTYYASWAKGRLTISKDTSKNQVVLTMTNMDPVDTATYYCARGVPAYSHGGDLWGQGTLVTVSSASTKGPSVFPLAPSSKSTSGGTAALGCLVKDYFPEPVTVSWNSGALTSGVHTFPAVLQSSGLYSLSSVVTVPSSSLGTQTYICNVNHKPSNTKVDKKVEPKSCDKTHTCPPCPAPELLNGPVVFLFPPKPKDTLMISRTPEVTCVVVDVSDEDPEVKFNWYVDGVEVHNAKTKPREEQYNSTYRVVSVLTVLHQDWLNGKEYKCKVSNKALPKPIEKTISKAKGQPREPQVYTLPPSREEMTKNQVSLTCLVKGFYPSDIAVEWESNGQPENNYKTTPPVLDSDGSFFLYSKLTVDKSRWQQGNVFSCSVMHEALHNHYTQKSLSLSP
light: DIVMTQSPATLSLSPGERATLSCTSSQSVYHANWLSWFQQKPGQPPKLLIYWASTLAYGVPSRFSGSGSGTDFTLTISSLQPEDAATYYCAGGYGGGRYAFGQGTKVEIKRTVAAPSVFIFPPSDEQLKSGTASVVCLLNNFYPREAKVQWKVDNALQSGNSQESVTEQDSKDSTYSLSSTLTLSKADYEKHKVYACEVTHQGLSSPVTKSFNRGEC
notes: Substitutions introduced into M103205H795-SG1; expressed with M103202L889-SK1 as light chain
Consider B2, for which the Kd in [1] came to 640 nM; in [2] it was 710 nM; in [3] it was 1200 nM; in [4] it was 9400 nM; in test [5], 4000 nM; in test [6], 22000 nM. The values for the Kd in [7], in test [8] and in test [9] were 12000 nM, 460 nM and 860 nM, respectively.

B3: M103205H795-MY204/M103202L889-SK1 (antibody, human IgG1, kappa)
heavy: QVTLKESGPVLVKPTETLTLTCTVSGIDLSHDDISWVRQAPGKGLEWVGIISYAGSTYYASWAKGRLTISKDTSKNQVVLTMTNMDPVDTATYYCARGVPAYSHGGDLWGQGTLVTVSSASTKGPSVFPLAPSSKSTSGGTAALGCLVKDYFPEPVTVSWNSGALTSGVHTFPAVLQSSGLYSLSSVVTVPSSSLGTQTYICNVNHKPSNTKVDKKVEPKSCDKTHTCPPCPAPELLNGPVVFLFPPKPKDTLMISRTPEVTCVVVDVSEEDPEVKFNWYVDGVEVHNAKTKPREELYNSTYRVVSVLTVLHQDWLNGKEYKCKVSNKALPKPIEKTISKAKGQPREPQVYTLPPSREEMTKNQVSLTCLVKGFYPSDIAVEWESNGQPENNYKTTPPVLDSDGSFFLYSKLTVDKSRWQQGNVFSCSVMHEALHNHYTQKSLSLSP
light: DIVMTQSPATLSLSPGERATLSCTSSQSVYHANWLSWFQQKPGQPPKLLIYWASTLAYGVPSRFSGSGSGTDFTLTISSLQPEDAATYYCAGGYGGGRYAFGQGTKVEIKRTVAAPSVFIFPPSDEQLKSGTASVVCLLNNFYPREAKVQWKVDNALQSGNSQESVTEQDSKDSTYSLSSTLTLSKADYEKHKVYACEVTHQGLSSPVTKSFNRGEC
notes: as for B2
For the molecule B3, the Kd in test [1] is 1400 nM; in test [2] it was 1300 nM; in [3], 2800 nM; in test [4], 13000 nM; in test [5], 3500 nM; in test [6], 5200 nM. Besides, the Kd in test [7] amounted to 1300 nM; in test [8], 810 nM; in [9] it was 1300 nM.
